Test results from patent US20140274782A1, “AFFINITY REAGENTS AND METHODS FOR DETECTION, PURIFICATION, AND PROTEOMIC ANALYSIS OF METHYLATED PROTEINS” (The Board of Trustees of the Leland Stanford Junior …, priority 2013, published 2014).
Blank lines part the entries; values can stand above or below the molecule they belong to.

Tests used:
[1] = biological target: T1, G9a and GLP (Homo sapiens, UniProt Q96KQ7+Q9H9B1); test: Triple SILAC pull-down after UNC0638 treatment of 293T cells, DMSO/UNC0638 ratio of protein captured by 3×MBT; type: cell-based; set-up: cells were treated for 24 hours with UNC0638 at 2.5 μM or DMSO vehicle control; endogenous in cells; host or cells: HEK 293T; conditions: for Protein Ratios DMSO/UNC0638: SILAC ratio of protein captured by 3xMBT, 293T cells treated 24 hours with UNC0638 at 2.5 μM or DMSO;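 as to all read-outs here: mass spectrometry (Q-Exactive) SILAC quantitation, DMSO/UNC0638 ratio computed after subtracting 3×MBTD355N mutant pull-down background, only proteins with at least twofold 3×MBT over mutant signal considered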
T1 sequence (Q96KQ7 2-1210 limits assumed): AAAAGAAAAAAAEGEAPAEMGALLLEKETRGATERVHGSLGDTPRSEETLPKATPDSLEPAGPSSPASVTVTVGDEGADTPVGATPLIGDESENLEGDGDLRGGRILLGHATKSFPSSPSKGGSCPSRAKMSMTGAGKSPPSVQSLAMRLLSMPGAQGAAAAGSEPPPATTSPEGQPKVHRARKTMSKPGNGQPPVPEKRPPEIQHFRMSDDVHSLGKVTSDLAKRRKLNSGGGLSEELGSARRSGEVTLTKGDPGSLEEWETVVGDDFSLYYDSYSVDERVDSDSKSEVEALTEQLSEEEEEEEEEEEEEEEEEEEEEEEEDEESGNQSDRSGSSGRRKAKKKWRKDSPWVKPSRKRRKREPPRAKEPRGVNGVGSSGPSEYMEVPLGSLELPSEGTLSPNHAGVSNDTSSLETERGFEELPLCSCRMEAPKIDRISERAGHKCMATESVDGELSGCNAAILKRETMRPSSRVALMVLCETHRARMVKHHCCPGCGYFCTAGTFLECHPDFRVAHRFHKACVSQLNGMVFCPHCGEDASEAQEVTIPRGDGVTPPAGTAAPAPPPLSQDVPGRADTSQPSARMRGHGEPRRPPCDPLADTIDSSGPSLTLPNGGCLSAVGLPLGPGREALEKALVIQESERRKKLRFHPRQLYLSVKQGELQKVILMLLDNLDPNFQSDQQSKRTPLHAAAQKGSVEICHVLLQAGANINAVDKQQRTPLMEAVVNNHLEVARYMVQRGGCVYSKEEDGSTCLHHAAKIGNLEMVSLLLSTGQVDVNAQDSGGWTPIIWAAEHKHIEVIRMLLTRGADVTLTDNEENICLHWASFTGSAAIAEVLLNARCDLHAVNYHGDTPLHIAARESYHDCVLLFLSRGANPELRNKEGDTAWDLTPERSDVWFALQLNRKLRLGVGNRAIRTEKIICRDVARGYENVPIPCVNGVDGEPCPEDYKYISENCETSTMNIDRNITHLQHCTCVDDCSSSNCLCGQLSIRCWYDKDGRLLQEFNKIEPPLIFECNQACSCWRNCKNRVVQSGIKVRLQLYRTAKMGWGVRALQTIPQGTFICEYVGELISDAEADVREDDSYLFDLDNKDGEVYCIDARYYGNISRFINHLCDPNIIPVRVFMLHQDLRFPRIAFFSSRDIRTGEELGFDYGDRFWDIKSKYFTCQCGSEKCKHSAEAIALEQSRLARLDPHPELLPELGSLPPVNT
T1 sequence (Q9H9B1 2-1298 limits assumed): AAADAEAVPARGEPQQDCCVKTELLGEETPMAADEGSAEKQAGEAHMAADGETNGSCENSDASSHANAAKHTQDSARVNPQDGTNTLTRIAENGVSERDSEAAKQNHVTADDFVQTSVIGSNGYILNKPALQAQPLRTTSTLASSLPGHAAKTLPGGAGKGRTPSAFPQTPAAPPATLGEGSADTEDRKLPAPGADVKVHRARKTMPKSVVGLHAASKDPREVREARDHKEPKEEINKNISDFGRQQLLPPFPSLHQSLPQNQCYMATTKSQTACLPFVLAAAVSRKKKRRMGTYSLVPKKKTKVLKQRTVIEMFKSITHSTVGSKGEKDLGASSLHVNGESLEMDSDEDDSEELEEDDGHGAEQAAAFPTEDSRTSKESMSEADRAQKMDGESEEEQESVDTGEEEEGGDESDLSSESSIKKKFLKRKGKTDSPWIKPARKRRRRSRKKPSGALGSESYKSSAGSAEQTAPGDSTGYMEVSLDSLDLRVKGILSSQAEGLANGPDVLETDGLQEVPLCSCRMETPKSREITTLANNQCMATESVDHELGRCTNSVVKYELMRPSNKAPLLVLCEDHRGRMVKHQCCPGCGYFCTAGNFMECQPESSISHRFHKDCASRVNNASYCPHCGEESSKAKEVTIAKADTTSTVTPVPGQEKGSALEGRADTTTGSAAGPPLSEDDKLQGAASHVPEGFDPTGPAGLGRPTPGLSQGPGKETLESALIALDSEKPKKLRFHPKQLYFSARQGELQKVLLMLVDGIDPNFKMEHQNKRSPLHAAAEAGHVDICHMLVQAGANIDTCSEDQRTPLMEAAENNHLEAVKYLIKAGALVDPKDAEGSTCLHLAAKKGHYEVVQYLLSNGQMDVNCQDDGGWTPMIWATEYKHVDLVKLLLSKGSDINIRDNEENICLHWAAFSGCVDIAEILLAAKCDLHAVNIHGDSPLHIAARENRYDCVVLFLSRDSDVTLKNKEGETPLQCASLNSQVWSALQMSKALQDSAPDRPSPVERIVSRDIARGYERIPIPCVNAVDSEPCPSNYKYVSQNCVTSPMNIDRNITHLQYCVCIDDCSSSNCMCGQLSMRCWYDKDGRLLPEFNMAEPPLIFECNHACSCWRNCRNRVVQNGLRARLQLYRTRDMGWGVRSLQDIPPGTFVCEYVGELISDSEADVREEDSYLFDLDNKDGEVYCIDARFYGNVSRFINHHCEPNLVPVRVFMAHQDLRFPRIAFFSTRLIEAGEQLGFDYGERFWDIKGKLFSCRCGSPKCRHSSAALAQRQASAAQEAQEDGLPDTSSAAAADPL

[2] = system: 3×MBT domain of L3MBTL1; test: Triple SILAC pull-down, 3xMBT/3xMBTD355N ratio (cytoplasmic, nuclear and chromatin fractions of 293T cells); type: binding, human; conditions: SILAC ratio; for Protein Ratios 3xMBT/D355N: pull-down by 3xMBT vs 3xMBTD355N, 293T cells;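 as to all read-outs here: proteins quantified with MaxQuant, requiring at least two unique peptides and quantification in both label directions, normalized to the mean of proteins from a digested loading control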

Protein Ratios DMSO/UNC0638 [1]: 1.3
B1: Heterogeneous nuclear ribonucleoprotein L (protein, UniProt P14866 1-589, looked up)
Heterogeneous nuclear …: MSRRLLPRAEKRRRRLEQRQQPDEQRRRSGAMVKMAAAGGGGGGGRYYGGGSEGGRAPKRLKTDNAGDQHGGGGGGGGGAGAAGGGGGGENYDDPHKTPASPVVHIRGLIDGVVEADLVEALQEFGPISYVVVMPKKRQALVEFEDVLGACNAVNYAADNQIYIAGHPAFVNYSTSQKISRPGDSDDSRSVNSVLLFTILNPIYSITTDVLYTICNPCGPVQRIVIFRKNGVQAMVEFDSVQSAQRAKASLNGADIYSGCCTLKIEYAKPTRLNVFKNDQDTWDYTNPNLSGQGDPGSNPNKRQRQPPLLGDHPAEYGGPHGGYHSHYHDEGYGPPPPHYEGRRMGPPVGGHRRGPSRYGPQYGHPPPPPPPPEYGPHADSPVLMVYGLDQSKMNCDRVFNVFCLYGNVEKVKFMKSKPGAAMVEMADGYAVDRAITHLNNNFMFGQKLNVCVSKQPAIMPGQSYGLEDGSCSYKDFSESRNNRFSTPEQAAKNRIQHPSNVLHFFNAPLEVTEENFFEICDELGVKRPSSVKVFSGKSERSSSGLLEWESKSDALETLGFLNHYQMKNPNGPYPYTLKLCFSTAQHAS
Protein Ratios 3xMBT/D355N [2]: 2.4

Protein Ratios DMSO/UNC0638 [1]: 1.3
B2: Protein syndesmos (protein, UniProt Q9BRJ7 1-211, looked up)
Tudor-interacting repair …: MSTAAVPELKQISRVEAMRLGPGWSHSCHAMLYAANPGQLFGRIPMRFSVLMQMRFDGLLGFPGGFVDRRFWSLEDGLNRVLGLGLGCLRLTEADYLSSHLTEGPHRVVAHLYARQLTLEQLHAVEISAVHSRDHGLEVLGLVRVPLYTQKDRVGGFPNFLSNAFVSTAKCQLLFALKVLNMMPEEKLVEALAAATEKQKKALEKLLPASS
Protein Ratios 3xMBT/D355N [2]: 3.5

Relative to UNC0638 UNC Heavy ([1]; SILAC ratio DMSO/UNC0638 of protein pulled down with 3xMBT, UNC0638 in heavy SILAC media): 0.30 log base 2 | Relative to UNC0638 UNC Light ([1]; SILAC ratio DMSO/UNC0638 of protein pulled down with 3xMBT, UNC0638 in light SILAC media): 0.17 log base 2 | Relative to UNC0638 Average ([1]; average of UNC Light and UNC Heavy experiments): 0.24 log base 2
B3: PEF1 (protein, UniProt Q9UBV8 1-284, looked up)
Peflin: MASYPYRQGCPGAAGQAPGAPPGSYYPGPPNSGGQYGSGLPPGGGYGGPAPGGPYGPPAGGGPYGHPNPGMFPSGTPGGPYGGAAPGGPYGQPPPSSYGAQQPGLYGQGGAPPNVDPEAYSWFQSVDSDHSGYISMKELKQALVNCNWSSFNDETCLMMINMFDKTKSGRIDVYGFSALWKFIQQWKNLFQQYDRDRSGSISYTELQQALSQMGYNLSPQFTQLLVSRYCPRSANPAMQLDRFIQVCTQLQVLTEAFREKDTAVQGNIRLSFEDFVTMTASRML
3xMBT/D355N UNC Heavy ([2]; pull-down 3xMBT vs 3xMBTD355N, experiment with UNC0638 in heavy SILAC media): 1.48 log base 2 | 3xMBT/D355N UNC Light ([2]; pull-down 3xMBT vs 3xMBTD355N, experiment with UNC0638 in light SILAC media): 1.78 log base 2

Protein Ratios DMSO/UNC0638 [1]: 1.3
B4: WD repeat-containing protein 70 (protein, UniProt Q9NW82 1-654, looked up)
WD repeat-containing protein …: MERSGPSEVTGSDASGPDPQLAVTMGFTGFGKKARTFDLEAMFEQTRRTAVERSRKTLEAREKEEEMNREKELRRQNEDIEPTSSRSNVVRDCSKSSSRDTSSSESEQSSDSSDDELIGPPLPPKMVGKPVNFMEEDILGPLPPPLNEEEEEAEEEEEEEEEEENPVHKIPDSHEITLKHGTKTVSALGLDPSGARLVTGGYDYDVKFWDFAGMDASFKAFRSLQPCECHQIKSLQYSNTGDMILVVSGSSQAKVIDRDGFEVMECIKGDQYIVDMANTKGHTAMLHTGSWHPKIKGEFMTCSNDATVRTWEVENPKKQKSVFKPRTMQGKKVIPTTCTYSRDGNLIAAACQNGSIQIWDRNLTVHPKFHYKQAHDSGTDTSCVTFSYDGNVLASRGGDDSLKLWDIRQFNKPLFSASGLPTMFPMTDCCFSPDDKLIVTGTSIQRGCGSGKLVFFERRTFQRVYEIDITDASVVRCLWHPKLNQIMVGTGNGLAKVYYDPNKSQRGAKLCVVKTQRKAKQAETLTQDYIITPHALPMFREPRQRSTRKQLEKDRLDPLKSHKPEPPVAGPGRGGRVGTHGGTLSSYIVKNIALDKTDDSNPREAILRHAKAAEDSPYWVSPAYSKTQPKTMFAQVESDDEEAKNEPEWKKRKI
Protein Ratios 3xMBT/D355N [2]: 5.9

Protein Ratios DMSO/UNC0638 [1]: 1.3
B5: Probable ATP-dependent RNA helicase DDX23 (protein, UniProt Q9BUQ8 1-820, looked up)
Probable ATP-dependent RNA …: MAGELADKKDRDASPSKEERKRSRTPDRERDRDRDRKSSPSKDRKRHRSRDRRRGGSRSRSRSRSKSAERERRHKERERDKERDRNKKDRDRDKDGHRRDKDRKRSSLSPGRGKDFKSRKDRDSKKDEEDEHGDKKPKAQPLSLEELLAKKKAEEEAEAKPKFLSKAEREAEALKRRQQEVEERQRMLEEERKKRKQFQDLGRKMLEDPQERERRERRERMERETNGNEDEEGRQKIREEKDKSKELHAIKERYLGGIKKRRRTRHLNDRKFVFEWDASEDTSIDYNPLYKERHQVQLLGRGFIAGIDLKQQKREQSRFYGDLMEKRRTLEEKEQEEARLRKLRKKEAKQRWDDRHWSQKKLDEMTDRDWRIFREDYSITTKGGKIPNPIRSWKDSSLPPHILEVIDKCGYKEPTPIQRQAIPIGLQNRDIIGVAETGSGKTAAFLIPLLVWITTLPKIDRIEESDQGPYAIILAPTRELAQQIEEETIKFGKPLGIRTVAVIGGISREDQGFRLRMGCEIVIATPGRLIDVLENRYLVLSRCTYVVLDEADRMIDMGFEPDVQKILEHMPVSNQKPDTDEAEDPEKMLANFESGKHKYRQTVMFTATMPPAVERLARSYLRRPAVVYIGSAGKPHERVEQKVFLMSESEKRKKLLAILEQGFDPPIIIFVNQKKGCDVLAKSLEKMGYNACTLHGGKGQEQREFALSNLKAGAKDILVATDVAGRGIDIQDVSMVVNYDMAKNIEDYIHRIGRTGRAGKSGVAITFLTKEDSAVFYELKQAILESPVSSCPPELANHPDAQHKPGTILTKKRREETIFA
Protein Ratios 3xMBT/D355N [2]: 4.8
